Patent US20090291088A1, “THERAPEUTIC COMBINATIONS OF ANTI-IGF-1R ANTIBODIES AND OTHER COMPOUNDS” (Biogen Idec MA Inc., priority 2008, published 2009)
Values belong to the binder of their own block, whether it stands above or below them.

Assays:
[1] = target: All other mutant IGF-1R constructs (SD001-SD019 other than SD015); experiment: SPR, Fab over captured mutant receptor-Fc
[2] = target: murine IGF-1R(1-903)-Fc (mouse; human) (UniProt Q60751); experiment: SPR
[3] = target: murine IGF-1R(1-903)-Fc (mouse; human) (UniProt Q60751); experiment: SPR, Fab over captured mIGF-1R-Fc
[4] = target: murine IGF-1R(1-903)-Fc (mouse; human) (UniProt Q60751); experiment: SPR, Fab over captured mIGF-1R-Fc, 3 hr dissociation
[5] = target: murine IGF-1R(1-903)-Fc (mouse; human) (UniProt Q60751); experiment: SPR, Fab over mIGF-1R-Fc captured by anti-Fc, apparent affinity

Kd [1]: 5 nM
B1: M14-C03 Fab (Fab, V domains shown)
VH: EVQLLESGGGLVQPGGSLRLSCAASGFTFSKYMMSWVRQAPGKGLEWVSYISPSGGLTWYADSVKGRFTISRDNSKNTLYLQMNSLRAEDTAVYYCARDGARGYGMDVWGQGTTVTVSS
VL: DIQMTQSPATLSLSPGERATLSCRASQSVSSYLAWYQQKPGQAPRLLIYDASNRATGIPARFSGSGSGTDFTLTISSLEPEDFAVYYCQQRSNWPPEVTFGPGTKVDIK

fold decrease in binding against human IGF-1R Fc [2]: 100 fold
kon [3]: 471 M⁻¹ s⁻¹
Kd [1]: 1 nM
koff [4]: 4.2e-05 s⁻¹
Kd [5]: 89.1 nM
B2: M13-C06 Fab (Fab, V domains shown)
VH: EVQLLESGGGLVQPGGSLRLSCAASGFTFSIYRMQWVRQAPGKGLEWVSGISPSGGTTWYADSVKGRFTISRDNSKNTLYLQMNSLRAEDTAVYYCARWSGGSGYAFDIWGQGTMVTVSS
VL: DIQMTQSPLSLSASVGDRVTITCQASRDIRNYLNWYQQKPGKAPKLLIYDASSLQTGVPSRFGGSGSGTDFSFTIGSLQPEDIATYYCQQFDSLPHTFGQGTKLEIK
